Experimental data from the Immune Epitope Database (IEDB).

What was measured:
HLA-B*07:02 [1] = test: IEDB peptide-MHC binding, purified MHC/competitive/radioactivity; filed as Kd, often an IC50 or EC50 that approximates it; ≥ and ≤ were set here for values at or beyond the usual limits of such assays
HLA-B*35:01 = test: as above
HLA-B*51:01 = test: as above
HLA-B*53:01 = test: as above
HLA-B*54:01 = test: as above
HLA-A*03:01 [2] = test: IEDB peptide-MHC binding, purified MHC/competitive/fluorescence; filed as Kd, often an IC50 or EC50 that approximates it; ≥ and ≤ were set here for values at or beyond the usual limits of such assays; conditions: source organism: Influenza A virus (A/Fort Monmouth/1/1947-mouse adapted(H1N1))
HLA-A*01:01 = test: IEDB peptide-MHC binding, purified MHC/direct/fluorescence; filed as Kd, often an IC50 or EC50 that approximates it; ≥ and ≤ were set here for values at or beyond the usual limits of such assays; conditions: source organism: Coxiella burnetii
HLA-A*02:01 = test: as above
HLA-A*03:01 [3] = test: as above; conditions: source organism: Coxiella burnetii
HLA-A*11:01 = test: as above; conditions: source organism: Coxiella burnetii
HLA-A*26:01 = test: as above; conditions: source organism: Coxiella burnetii
HLA-A*31:01 = test: as above; conditions: source organism: Coxiella burnetii
HLA-A*69:01 = test: as above
HLA-B*07:02 [4] = test: as above; conditions: source organism: Coxiella burnetii
HLA-B*08:01 = test: as above; conditions: source organism: Coxiella burnetii
HLA-B*15:01 = test: as above; conditions: source organism: Coxiella burnetii
HLA-B*27:05 = test: as above; conditions: source organism: Coxiella burnetii
HLA-B*40:01 = test: as above; conditions: source organism: Coxiella burnetii
HLA-B*44:02 = test: as above; conditions: source organism: Coxiella burnetii
HLA-B*58:01 = test: as above; conditions: source organism: Coxiella burnetii
HLA-B*18:01 = test: as above; conditions: source organism: West Nile virus
HLA-A*02:12 = test: as above; conditions: source organism: Ravn virus - Ravn, Kenya, 1987
[5] = source organism: Vaccinia virus WR
[6] = source organism: Coxiella burnetii
[7] = source organism: Ebola virus - Mayinga, Zaire, 1976
[8] = source organism: Triticum aestivum

Question: For NPDNTIAVI, which Kd (HLA-B*07:02 [1]; [5]) is on record?
Answer: The Kd was 233 nM.

Question: What about the Kd (HLA-B*35:01; [5]) of the same sequence?
Answer: Its Kd is 2.65 nM.

Question: What about the Kd (HLA-B*51:01; [5]) of the same sequence?
Answer: The Kd was 1730 nM.

Question: And the Kd (HLA-B*53:01; [5])?
Answer: Its Kd is 1.42 nM.

Question: What about the Kd (HLA-B*54:01; [5]) of the same sequence?
Answer: Its Kd is 2210 nM.

Question: What does the source list for HPLSINVSGV?
Answer: Kd (HLA-B*07:02 [1]; [5]): 3840 nM; Kd (HLA-B*35:01; [5]): ≥ 54200 nM; Kd (HLA-B*51:01; [5]): ≥ 29600 nM; Kd (HLA-B*53:01; [5]): 18800 nM; Kd (HLA-B*54:01; [5]): 120 nM

Question: How did the Kd (HLA-A*03:01 [2]) turn out when ETMEVVQQTR was run?
Answer: Its Kd is ≥ 20000 nM.

Question: For WHYDQENPY, which Kd (HLA-B*35:01; source organism: Dengue virus 4 Philippines/H241/1956) is on record?
Answer: Its Kd is 1560 nM.

Question: With YHFDPVHHL as the sequence, how does the Kd (HLA-A*01:01) read?
Answer: The Kd was ≥ 20000 nM.

Question: And the Kd (HLA-A*02:01; [6])?
Answer: Its Kd is ≥ 20000 nM.

Question: What about the Kd (HLA-A*03:01 [3]) of the same sequence?
Answer: The Kd was ≥ 20000 nM.

Question: What about the Kd (HLA-A*11:01) of the same sequence?
Answer: Its Kd is ≥ 20000 nM.

Question: What about the Kd (HLA-A*26:01) of the same sequence?
Answer: Its Kd is ≥ 20000 nM.

Question: What about the Kd (HLA-A*31:01) of the same sequence?
Answer: Its Kd is ≥ 20000 nM.

Question: What about the Kd (HLA-A*69:01; [6]) of the same sequence?
Answer: Its Kd is ≥ 20000 nM.

Question: And the Kd (HLA-B*07:02 [4])?
Answer: Its Kd is ≥ 20000 nM.

Question: And the Kd (HLA-B*08:01)?
Answer: The Kd was ≥ 20000 nM.

Question: And the Kd (HLA-B*15:01)?
Answer: The Kd was ≥ 20000 nM.

Question: What about the Kd (HLA-B*27:05) of the same sequence?
Answer: Its Kd is ≥ 20000 nM.

Question: What about the Kd (HLA-B*40:01) of the same sequence?
Answer: Its Kd is ≥ 20000 nM.

Question: And the Kd (HLA-B*44:02)?
Answer: The Kd was ≥ 20000 nM.

Question: And the Kd (HLA-B*58:01)?
Answer: The Kd was ≥ 20000 nM.

Question: Which Kd (HLA-B*18:01) does the source give for WEALDTMYV here?
Answer: The Kd was 556 nM.

Question: IISDLSIFI was tested. Which Kd (HLA-A*02:01; [7]) did it give?
Answer: The Kd was 3 nM.

Question: What about the Kd (HLA-A*02:12) of the same sequence?
Answer: The Kd was 69 nM.

Question: What about the Kd (HLA-A*69:01; [7]) of the same sequence?
Answer: The Kd was 32.3 nM.

Question: How did the Kd (HLA-B*07:02 [1]; [5]) turn out when TPEQKAYVPA was run?
Answer: The Kd was 1230 nM.

Question: And the Kd (HLA-B*35:01; [5])?
Answer: Its Kd is 11000 nM.

Question: And the Kd (HLA-B*51:01; [5])?
Answer: The Kd was ≥ 55200 nM.

Question: What about the Kd (HLA-B*53:01; [5]) of the same sequence?
Answer: Its Kd is ≥ 45200 nM.

Question: And the Kd (HLA-B*54:01; [5])?
Answer: Its Kd is 13.3 nM.

Question: Which results are given for YPQPQLPY?
Answer: Kd (HLA-B*07:02 [1]; [8]): ≥ 22600 nM; Kd (HLA-B*35:01; [8]): 249 nM; Kd (HLA-B*51:01; [8]): 10900 nM; Kd (HLA-B*53:01; [8]): 1340 nM; Kd (HLA-B*54:01; [8]): ≥ 54500 nM
